Test results from patent US12115223B2, “Conjugate of biotin-modified dimer and phthalocyanine dye” (THE UNIVERSITY OF TOKYO, priority 2021, dated 2024).

How the values were obtained:
[1] = molecular target: T1, Recombinant Human CEACAM-5/CD66e Protein (Homo sapiens, UniProt P06731); assay: SPR (Biacore T200) affinity of CEA-V2122 for the antigen CEACAM5; type: binding; conditions: bivalent analysis
T1 construct: purchased R & D SYSTEMS
T1 sequence (P06731 35-676): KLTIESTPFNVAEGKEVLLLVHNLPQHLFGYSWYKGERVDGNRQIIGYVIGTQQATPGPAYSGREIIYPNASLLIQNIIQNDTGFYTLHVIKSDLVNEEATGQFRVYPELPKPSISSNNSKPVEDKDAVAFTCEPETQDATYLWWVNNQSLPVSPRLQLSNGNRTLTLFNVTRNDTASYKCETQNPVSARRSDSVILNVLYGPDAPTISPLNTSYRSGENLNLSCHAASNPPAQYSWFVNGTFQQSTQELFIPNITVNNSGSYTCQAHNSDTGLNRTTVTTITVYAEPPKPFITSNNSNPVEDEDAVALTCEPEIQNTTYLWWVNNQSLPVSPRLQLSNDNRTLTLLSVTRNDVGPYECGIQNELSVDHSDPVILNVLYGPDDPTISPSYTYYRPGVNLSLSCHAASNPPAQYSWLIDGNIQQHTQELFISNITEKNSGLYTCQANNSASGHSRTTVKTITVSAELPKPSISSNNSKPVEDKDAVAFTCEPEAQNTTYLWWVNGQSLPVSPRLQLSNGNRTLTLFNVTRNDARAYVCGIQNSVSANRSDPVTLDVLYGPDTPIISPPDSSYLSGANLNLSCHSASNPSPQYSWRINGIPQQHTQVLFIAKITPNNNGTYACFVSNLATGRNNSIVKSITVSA
Protocol: The affinity of CEA-V2122 for the antigen CEACAM5 was evaluated using a surface plasmon resonance (SPR) measuring device, Biacore T200 (GE Healthcare Life Sciences). Specifically, Recombinant Human CEACAM-5/CD66e Protein, CF (R & D SYSTEMS) was immobilized on Sensor Chip CMS (GE Healthcare Life Sciences) using an amine-coupling kit (GE Healthcare Life Sciences). The fmal amount of the ligand immobilized was 279 RU. Moreover, with regard to the purified CEA-V2122, two-fold serial dilutions from 1E-08 M to 6.25E-10 M were prepared as analytes. Regarding interaction analysis, data were obtained by single-cycle kinetics analysis. Using Biacore T200 Evaluation Software, version 2.0, the obtained data were subjected to curve fitting in a bivalent analysis mode, and the following values were obtained: ka1=3.208E+5, and kd1=3.461E-7.

[2] = system: CEACAM5-positive MKN-45 cells and CEACAM5-negative DLD1 cells; assay: Cell staining of CEACAM5-expressing cell line using FITC-labeled CEA-V2122; type: cell-based, human; conditions: 20 nM CEA-V2122-FITC
Protocol: In order to stain a CEACAM5 expression-positive cancer cell line, FITC labeling was carried out on the cell line, using 100 μg of a purified CEA-V2122 protein. Specifically, labeling was carried out using Fluorescein Labeling Kit-NH2 (DOJINDO LABORATORIES) in accordance with the dosage and administration described in the operating manual included with the kit, and the obtained product was defined to be CEA-V2122-FITC. Specific staining of the CEACAM5 expression-positive cancer cell line is as follows. That is, CEACAM5-positive human stomach cancer-derived MKN-45 cells and CEACAM5-negative human colon cancer-derived DLD1 cells were each seeded on a CELLSTAR, μClear, 96-well plate (Greiner) to a cell density of 2.0×10^4 cells/well, and thereafter, the cells were cultured overnight. Subsequently, a culture solution containing 20 nM CEA-V2122-FITC and 1 μM Hoechist was added to the 96-well plate to a concentration of 100 μL/well, and the obtained mixture was then reacted at 4° C. for 30 minutes. Thereafter, each image was taken using In Cell Analyzer 6000 (GE Healthcare Life Sciences).

Molecule	KD=kd1/ka1 [1]	localisation of CEACAM5 after binding (time-series images of MKN45 cells, FIG. 6) [2]	recognition of CEACAM5 on cells (stained cell images, FIG. 5) ([2]; 4° C., 30 minutes)
CEA-V2122: scFv-type anti-CEACAM5 antibody bound with mutant streptavidin V2122 via an amino acid linker (SEQ ID NO: 3) (protein) QVKLEQSGAEVVKPGASVKLSCKASGFNIKDSYMHWLRQGPGQRLEWIGWIDPENGDTEYAPKFQGKATFTTDTSANTAYLGLSSLRPEDTAVYYCNEGTPTGPYYFDYWGQGTLVTVSSGGGGSGGGGSGGGGSENVLTQSPSSMSVSVGDRVNIACSASSSVPYMHWLQQKPGKSPKLLIYLTSNLASGVPSRFSGSGSGTDYSLTISSVQPEDAATYYCQQRSSYPLTFGGGTKLEIKGGGGSGGGGAEAGITGTWSDQLGDTFIVTAGADGALTGTYENAVGGAESRYVLTGRYDSAPATDGSGTALGWTVAWKNNSKNAHSATTWSGQYVGGADAKINTQWLLTSGTTNANAWKSTLVGHDTFTKVKPSAASHHHHHH	1.078E-12	–	–
CEA-V2122-FITC: purified CEA-V2122 protein labeled using Fluorescein Labeling Kit-NH2 (conjugate) QVKLEQSGAEVVKPGASVKLSCKASGFNIKDSYMHWLRQGPGQRLEWIGWIDPENGDTEYAPKFQGKATFTTDTSANTAYLGLSSLRPEDTAVYYCNEGTPTGPYYFDYWGQGTLVTVSSGGGGSGGGGSGGGGSENVLTQSPSSMSVSVGDRVNIACSASSSVPYMHWLQQKPGKSPKLLIYLTSNLASGVPSRFSGSGSGTDYSLTISSVQPEDAATYYCQQRSSYPLTFGGGTKLEIKGGGGSGGGGAEAGITGTWSDQLGDTFIVTAGADGALTGTYENAVGGAESRYVLTGRYDSAPATDGSGTALGWTVAWKNNSKNAHSATTWSGQYVGGADAKINTQWLLTSGTTNANAWKSTLVGHDTFTKVKPSAASHHHHHH	–	the CEACAM5 stays on the surface of the cell membrane	specifically recognizes CEACAM5 on the surface of the cell membrane
